Data as given in patent US20180080021.

Molecular target: polymerized microtubules

B1: recombinant R293W mutant KIF3B motor domain (amino acids 1-365) with N-terminal 6x-Histidine tag (protein)
chain: MSKLKSSESVRVVVRCRPMNGKEKAASYDKVVDVDVKLGQVSVKNPKGTAHEMPKTFTFDAVYDWNAKQFELYDETFRPLVDSVLQGFNGTIFAYGQTGTGKTYTMEGIRGDPEKRGVIPNSFDHIFTHISRSQNQQYLVRASYLEIYQEEIRDLLSKDQTKRLELKERPDTGVYVKDLSSFVTKSVKEIEHVMNVGNQNRSVGATNMNEHSSRSHAIFVITIECSEVGLDGENHIRVGKLNLVDLAGSERQAKTGAQGERLKEATKINLSLSALGNVISALVDGKSTHIPYWDSKLTRLLQDSLGGNAKTVMVANVGPASYNVEETLTTLRYANRAKNIKNKPRVNEDPKDALLREFQEEIARL
  rate of ATP hydrolysis (kinesin ATPase end-point assay, free phosphate) with increasing amounts of microtubules: When compared to wild-type, the mutant motor domain displayed a significantly reduced rate of ATP hydrolysis upon incubation with various concentrations of microtubules
